Measurements taken from patent publication US10905748B2, “Ovotransferrin treatment for the reproductive tract” (Vets Plus, Inc., priority 2018, dated 2021).

Key:
[1] = system: metritis causing bacteria; experiment: Agar well zone of inhibition on bacteria cultured from metritis discharge; type: cell-based, bacteria from the discharge of a cow diagnosed with metritis; details: 24 hour diffusion at 37° C.
Method: A cow that was diagnosed with metritis, as evidenced by elevated temperature, elevated total leukocyte count, raised tails, and foul smelling discharge, had the discharge cultured onto blood agar plates. Bacteria colonies with different morphology from the metritis discharge that grew were selected and placed into 20 ml liquid nutrient broth in culture tubes at a defined amount and incubated overnight at 37° C. The bacteria in the liquid nutrient broth was then used to create agar plates by mixing 1 ml of nutrient broth containing bacteria with 15 ml of warm agar and poured into petri dishes and incubated for 24-48 hrs. at 37° C. Then, holes were punched into the agar and a dose response of previously purified ovotransferrin at 0%, 10% and 25% w/v in sterile water was placed in the holes. The plates were allowed to diffuse for 24 hour at 37° C. to check for zone of inhibition. Zones of inhibition were visualized by clearings in the agar where no bacteria grew. […] This is consistent with ovotransferrin in killing the bacteria that cause metritis. It was concluded that ovotransferrin of the invention is able to inhibit growth of the metritis causing bacteria in a dose dependent manner.

[2] = system: Cows with clinical endometritis; experiment: Intrauterine infusion of ovotransferrin solution in cows with clinical endometritis; type: in vivo, cow
Excerpt: (§1) Cows with clinical endometritis (n=4) were identified based on the clinical signs, rectal temperature, score of mucus characteristics, total polymorph numbers, pH of uterine discharge, uterine swab analysis, and bacterial culture, along with healthy cows (control, n=4). Two hundred ml of a 5% ovotransferrin solution of the invention were infused intrauterine with a special pipette attached to a pump in the treatment group. Seven days later, all the above parameters were reexamined. Total number of polymorph in uterine discharge was counted using a hemocytometer, stained with Giemsa and Gram stain.
as §1, with “(n=3)” for “(n=4)”, “n=3.” for “n=4).”, “reexamined.” for “reexamined. Total number of polymorph in uterine discharge was counted using a hemocytometer, stained with Giemsa and Gram stain.”
as §1, with “reexamined. Mucus score was 6 times higher” for “reexamined. Total number of polymorph”, “in metritis affected cows than control values. […] This indicates the invention” for “in uterine discharge”, “was efficacious for treatment metritis in cows.” for “was counted using a hemocytometer, stained with Giemsa and Gram stain.”
as §1, with “reexamined.” for “reexamined. Total number of polymorph in uterine discharge was counted using a hemocytometer, stained with Giemsa and Gram stain.”

[3] = system: infectious metritis in cows; experiment: Clinical trial of ovotransferrin bolus to prevent infectious metritis in postpartum cows; type: in vivo, cow; details: examined after 30 days
Method: (§2) A clinical trial was conducted to examine efficacy of the invention to prevent infectious metritis in cows. 10 gram of purified Ovotransferrin was mixed with 10 grams of binding agent to create a 20 gram total bolus with dimensions of 2 cm wide and 6 cm long. For N=5 cows from a herd known to have the standard metritis rate were selected that were 3 hours postpartum. Two boluses were inserted into the uterus and allowed to dissolve. The cows were monitor daily for any obvious signs of metritis. After 30 days, the cows were examined in detail for clinical signs of metritis. […] It would be expected that at least one of the cows of this group would have had metritis 10-12 days without the use of the invention.
as §2, with “A single bolus was” for “Two boluses were”
as §2, with “cows. 2.5” for “cows. 10”, “with 17.5” for “with 10”, “For N=7” for “For N=5”
A clinical trial was conducted to examine efficacy of the invention to prevent infectious metritis in cows. 2.5 gram of purified Ovotransferrin was mixed with 17.5 grams of binding agent to create a 20 gram total bolus with dimensions of 2 cm wide and 6 cm long. For N=7 cows from a herd known to have the standard metritis rate were selected that were 3 hours postpartum. A single bolus was inserted into the uterus and allowed to dissolve. The cows were monitor daily for any obvious signs of metritis. After 30 days, the cows were examined in detail for clinical signs of metritis. […]

B1: ovotransferrin (protein, UniProt P02789 20-705, looked up)
Ovotransferrin: APPKSVIRWCTISSPEEKKCNNLRDLTQQERISLTCVQKATYLDCIKAIANNEADAISLDGGQAFEAGLAPYKLKPIAAEVYEHTEGSTTSYYAVAVVKKGTEFTVNDLQGKTSCHTGLGRSAGWNIPIGTLLHRGAIEWEGIESGSVEQAVAKFFSASCVPGATIEQKLCRQCKGDPKTKCARNAPYSGYSGAFHCLKDGKGDVAFVKHTTVNENAPDQKDEYELLCLDGSRQPVDNYKTCNWARVAAHAVVARDDNKVEDIWSFLSKAQSDFGVDTKSDFHLFGPPGKKDPVLKDLLFKDSAIMLKRVPSLMDSQLYLGFEYYSAIQSMRKDQLTPSPRENRIQWCAVGKDEKSKCDRWSVVSNGDVECTVVDETKDCIIKIMKGEADAVALDGGLVYTAGVCGLVPVMAERYDDESQCSKTDERPASYFAVAVARKDSNVNWNNLKGKKSCHTAVGRTAGWVIPMGLIHNRTGTCNFDEYFSEGCAPGSPPNSRLCQLCQGSGGIPPEKCVASSHEKYFGYTGALRCLVEKGDVAFIQHSTVEENTGGKNKADWAKNLQMDDFELLCTDGRRANVMDYRECNLAEVPTHAVVVRPEKANKIRDLLERQEKRFGVNGSEKSKFMMFESQNKDLLFKDLTKCLFKVREGTTYKEFLGDKFYTVISSLKTCNPSDILQMCSFLEGK
notes: 12 to 13% of total egg white protein
Question: For B1, which zone of inhibition ([1]; 10% w/v ovotransferrin in sterile water in agar wells) is on record?
Answer: a zone of inhibition was seen

Question: What about the zone of inhibition ([1]; 25% w/v ovotransferrin in sterile water in agar wells) of the same molecule?
Answer: a larger zone

Question: What about the “Mean pH of uterine discharge” value ([2]; one week after intrauterine infusion of 200 ml 5% solution, 8.8 before treatment, healthy control 6.8, n=3, p<0.05, FIG. 2) of the same molecule?
Answer: 7.0

Question: And the Rectal temperature ([2]; one week after intrauterine infusion of 200 ml 5% solution, >40° C. before treatment, n=4, FIG. 1)?
Answer: 38.5 °C

Question: What about the Mucus score ([2]; seven days after intrauterine infusion of 200 ml 5% solution, 6 times control before treatment, n=4, FIG. 3) of the same molecule?
Answer: statistically significant decrease

Question: What about the “Total number of polymorph in uterine discharge” value ([2]; seven days after intrauterine infusion of 200 ml 5% solution, more than 70 times control before treatment, n=4, FIG. 4) of the same molecule?
Answer: statistically significantly (p<0.01) reduced (2 and 4 times higher, respectively, compared with control)

Question: And the “clinical signs of metritis” value ([3]; single bolus of 2.5 g ovotransferrin in uterus 3 hours postpartum, N=7)?
Answer: None of the cows had any signs of metritis

Question: And the “clinical signs of metritis” value ([3]; single bolus of 10 g ovotransferrin in uterus 3 hours postpartum, N=5)?
Answer: None of the cows had any signs of metritis

Question: What about the “clinical signs of metritis” value ([3]; two boluses of 2.5 g ovotransferrin (5 grams) in uterus 3 hours postpartum, N=7) of the same molecule?
Answer: None of the cows had any signs of metritis

Question: What about the “clinical signs of metritis” value ([3]; two boluses of 10 g ovotransferrin (20 grams) in uterus 3 hours postpartum, N=5) of the same molecule?
Answer: None of the cows had any signs of metritis
